For one substance, stoichiometry N results are on record in paper PMC10966353.

A word on the stoichiometry N: it is a count of units in the complex or per binding partner.

The target of this test is A/Puerto Rico/8/1934 hemagglutinin with an N-terminal sfGFP, GCN4-pII trimerization motif and Strep-tag II (influenza A virus A/Puerto Rico/8/1934). Briefly: negative stain electron microscopy.

“A/Puerto Rico/8/1934 hemagglutinin with an N-terminal sfGFP, GCN4-pII trimerization motif and Strep-tag II” came in with a stoichiometry N of 3.
